According to paper PMC5348764, “Functional differentiation of 3-ketosteroid Δ^1-dehydrogenase isozymes in Rhodococcus ruber strain Chol-4” (Microbial Cell Factories, 2017):

T1: KstD2 (Rhodococcus ruber, UniProt I0B6I6)
T1 sequence (I0B6I6 1-564): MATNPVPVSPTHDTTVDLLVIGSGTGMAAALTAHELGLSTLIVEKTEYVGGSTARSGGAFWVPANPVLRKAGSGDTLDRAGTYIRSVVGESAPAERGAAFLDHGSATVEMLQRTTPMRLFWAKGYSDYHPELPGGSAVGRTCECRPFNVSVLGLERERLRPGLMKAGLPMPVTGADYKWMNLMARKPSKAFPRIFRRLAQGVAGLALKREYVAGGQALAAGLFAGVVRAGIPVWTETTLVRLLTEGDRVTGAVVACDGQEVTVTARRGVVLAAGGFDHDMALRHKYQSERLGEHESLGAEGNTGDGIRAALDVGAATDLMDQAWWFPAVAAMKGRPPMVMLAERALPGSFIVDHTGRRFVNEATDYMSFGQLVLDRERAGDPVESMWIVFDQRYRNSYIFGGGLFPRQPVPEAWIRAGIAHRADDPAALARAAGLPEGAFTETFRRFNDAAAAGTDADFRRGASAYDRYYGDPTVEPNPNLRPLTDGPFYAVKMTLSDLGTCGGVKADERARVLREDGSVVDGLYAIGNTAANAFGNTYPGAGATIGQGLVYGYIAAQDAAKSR

T2: KstD1 (Rhodococcus ruber, UniProt I0B6J0)
T2 sequence (I0B6J0 1-511): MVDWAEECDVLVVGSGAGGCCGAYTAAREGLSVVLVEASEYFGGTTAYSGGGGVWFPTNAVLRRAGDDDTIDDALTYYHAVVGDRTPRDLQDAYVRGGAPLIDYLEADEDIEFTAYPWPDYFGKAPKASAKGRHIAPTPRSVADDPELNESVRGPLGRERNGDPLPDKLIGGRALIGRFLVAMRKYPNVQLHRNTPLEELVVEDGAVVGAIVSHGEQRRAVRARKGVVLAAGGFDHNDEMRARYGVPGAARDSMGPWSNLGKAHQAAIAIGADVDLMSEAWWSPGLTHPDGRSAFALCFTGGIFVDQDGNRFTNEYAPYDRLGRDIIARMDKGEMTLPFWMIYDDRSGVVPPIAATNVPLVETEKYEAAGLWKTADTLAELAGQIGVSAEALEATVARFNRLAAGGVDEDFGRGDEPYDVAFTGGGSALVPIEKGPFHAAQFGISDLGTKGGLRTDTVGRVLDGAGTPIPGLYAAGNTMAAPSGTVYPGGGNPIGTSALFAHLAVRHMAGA

B1: KstD3 (Rhodococcus ruber) (protein)
chain: MIKQEYDIVVVGSGAGGMTAALTAAHRGASVVLVEKAPHYGGSSARSGGGVWIPNNEVLGAAGVTDTPEAARTYLHSIIGDVVPAGKIDTYIDRGPEMLSFVLEHSALELQWVPGYSDYYPEAPGGRLGGRSVEPKPFDGKRLGDDLALLEPDYVKGPPNFVITQADYKWLNLLMRNPRGPVRAAKVGVRYLWARARRRHLLVRGQALMAGLRMGLRDAGVPLLLNTALTDLVVEDGVVRGVRVESDGQQRTVRARRGVVIASGGFEHNEQMRTQYQRAPIGTEWTVGAKANTGDGIRAGQSLGAAVDFMDDAWWGPSFPLTGGPWFALSERSLPGSMMVNAAGRRFVNESAPYVEAVHAMYGGRHGRGDGPGENIPCWMILDQRYRNRYTFAGITPRSPFPKRWLKAGVVVRAGSIAELAGKIGVPAAALTATVERFNGFARAGRDEDFGRGESGYDHYYGDPRNKPNPSLGVIDKAPFYAIKVVPGDLGTKGGLRTDADARVLREDGTVIEGLYAAGNASGPVMGHTYAGPGATIGPAMTFAYLAVLDALARPEQPAVPPVSETVEQH
B2: KstD1 (Rhodococcus ruber) (protein)
chain: MVDWAEECDVLVVGSGAGGCCGAYTAAREGLSVVLVEASEYFGGTTAYSGGGGVWFPTNAVLRRAGDDDTIDDALTYYHAVVGDRTPRDLQDAYVRGGAPLIDYLEADEDIEFTAYPWPDYFGKAPKASAKGRHIAPTPRSVADDPELNESVRGPLGRERNGDPLPDKLIGGRALIGRFLVAMRKYPNVQLHRNTPLEELVVEDGAVVGAIVSHGEQRRAVRARKGVVLAAGGFDHNDEMRARYGVPGAARDSMGPWSNLGKAHQAAIAIGADVDLMSEAWWSPGLTHPDGRSAFALCFTGGIFVDQDGNRFTNEYAPYDRLGRDIIARMDKGEMTLPFWMIYDDRSGVVPPIAATNVPLVETEKYEAAGLWKTADTLAELAGQIGVSAEALEATVARFNRLAAGGVDEDFGRGDEPYDVAFTGGGSALVPIEKGPFHAAQFGISDLGTKGGLRTDTVGRVLDGAGTPIPGLYAAGNTMAAPSGTVYPGGGNPIGTSALFAHLAVRHMAGA
B3: KstD2 (Rhodococcus ruber) (protein)
chain: MATNPVPVSPTHDTTVDLLVIGSGTGMAAALTAHELGLSTLIVEKTEYVGGSTARSGGAFWVPANPVLRKAGSGDTLDRAGTYIRSVVGESAPAERGAAFLDHGSATVEMLQRTTPMRLFWAKGYSDYHPELPGGSAVGRTCECRPFNVSVLGLERERLRPGLMKAGLPMPVTGADYKWMNLMARKPSKAFPRIFRRLAQGVAGLALKREYVAGGQALAAGLFAGVVRAGIPVWTETTLVRLLTEGDRVTGAVVACDGQEVTVTARRGVVLAAGGFDHDMALRHKYQSERLGEHESLGAEGNTGDGIRAALDVGAATDLMDQAWWFPAVAAMKGRPPMVMLAERALPGSFIVDHTGRRFVNEATDYMSFGQLVLDRERAGDPVESMWIVFDQRYRNSYIFGGGLFPRQPVPEAWIRAGIAHRADDPAALARAAGLPEGAFTETFRRFNDAAAAGTDADFRRGASAYDRYYGDPTVEPNPNLRPLTDGPFYAVKMTLSDLGTCGGVKADERARVLREDGSVVDGLYAIGNTAANAFGNTYPGAGATIGQGLVYGYIAAQDAAKSR

Legend:
KstD2 = molecular target: T1, KstD2; assay: DCPIP reduction at […] nm, cell-free extract, Michaelis-Menten fit; details: read-out: KstD2 / Km; 80 µM DCPIP as electron acceptor, 50 mM Tris pH 7, 30 °C
KstD1 = molecular target: T2, KstD1; assay: as above; details: read-out: KstD1 / Km; 80 µM DCPIP as electron acceptor, 50 mM Tris pH 7, 30 °C
[1] = substrate: CC(=O)[C@H]1CC[C@H]2[C@@H]3CCC4=CC(=O)CC[C@]4(C)[C@H]3CC[C@]12C; assay: cells, lysate or membranes; details: 80 µM DCPIP as electron acceptor, 50 mM Tris pH 7, 30 °C
[2] = substrate: C[C@]12CCC(=O)C[C@@H]1CC[C@@H]1[C@@H]2CC[C@]2(C)[C@@H](O)CC[C@@H]12; assay: cells, lysate or membranes
[3] = substrate: C[C@]12CC[C@H]3[C@@H](CCC4=CC(=O)CC[C@@]43C)[C@@H]1CC[C@@H]2C(=O)CO; assay: cells, lysate or membranes; details: 80 µM DCPIP as electron acceptor, 50 mM Tris pH 7, 30 °C
[4] = substrate: C[C@H](C(=O)O)[C@H]1CC[C@H]2[C@@H]3CCC4=CC(=O)CC[C@]4(C)[C@H]3CC[C@]12C; assay: cells, lysate or membranes; details: 80 µM DCPIP as electron acceptor, 50 mM Tris pH 7, 30 °C
[5] = substrate: C[C@]12CCC(=O)C=C1CC[C@@H]1[C@@H]2CC[C@]2(C)C(=O)CC[C@@H]12; assay: cells, lysate or membranes; details: pH 7.0; 30.0 °C
[6] = substrate: C[C@]12CC[C@H]3[C@@H](CCC4=CC(=O)CC[C@@]43C)[C@@H]1CC[C@@H]2O; assay: cells, lysate or membranes; details: pH 7.0; 30.0 °C
[7] = substrate: C[C@]12C[C@H](O)[C@H]3[C@@H](CCC4=CC(=O)CC[C@@]43C)[C@@H]1CC[C@@H]2C(=O)CO; assay: cells, lysate or membranes; details: 80 µM DCPIP as electron acceptor, 50 mM Tris pH 7, 30 °C
[8] = substrate: [H][C@@]12CCC3=CC(=O)CC[C@]3(CO)[C@@]1([H])CC[C@]1(C)C(=O)CC[C@@]21[H]; assay: cells, lysate or membranes; details: pH 7.0; 30.0 °C

Molecule | Km (KstD2) [µM] | Km (KstD1) [µM] | Km [1] [µM] | Km ([2]; 80 µM DCPIP as electron acceptor, 50 mM Tris pH 7, 30 °C) [µM] | Km [3] [µM] | Km [4] [µM] | Km [5] [µM] | Km [6] [µM] | Km [7] [µM] | Km [8] [µM] | Km ([2]; pH 7.0, 30.0 °C) [µM]
C[C@]12CCC(=O)C=C1CC[C@H]1[C@@H]3CCC(=O)[C@@]3(C)CC[C@@]12O [9OHAD, 9α-hydroxy-4-androstene-3,17-dione] | 543 ± 77.8 | 22.1 ± 7 |  |  |  |  |  |  |  |  | 
B1 |  |  | 43.6 ± 2.9 | 181.1 ± 42.6 | 111.3 ± 4.0 |  |  |  |  |  | 
B2 |  |  | 27.9 ± 9.5 |  | 21.6 ± 4.5 | 76.1 ± 15.7 | 34.2 ± 3.8 | 28.8 ± 7.4 | 161.6 ± 7.6 | 368.8 ± 102.4 | 
B3 |  |  | 33.8 ± 4.9 |  | 42.5 ± 5.8 | 38.2 ± 6.6 | 40.1 ± 8.7 | 107.9 ± 18.5 | 374.3 ± 74.5 | 347.4 ± 41.7 | 24.57 ± 7.8
